Experimental data published in patent US20130295090A1.

B1: humanized MAb B2 (antibody)
VH: EVQLLEQSGSEVKKPGASVKVSCKASGYPFTDYAMSWVRQAPGQGLEYMGWIFTNSGNPTYAPGFAGRFVFSLDISVNTAYLHIDSLKPEDTAVYYCARGIVTPAASGDYFDSWGQGTLVTVSSASTKGPSVFPLAPSSKSTSGGTAALGCLVKDYFPEPVTVSWNSGALTSGVHTFPAVLQSSGLYSLSSVVTVPSSSLGTQTYICNVDHKPSNTKVDKKVEPKSCDKTHTCPPCPAPPVEGGPSVFLFPPKPKDTLMISRTPEVTCVVVDVSHEDPEVKFNWYVDGVEVHNAKTKPREEQYNSTYRVVSVLTVLHQDWLNGKEYKCKVSNKALPAPIEKTISKAKGQPREPQVYTLPPSRDELTKNQVSLTCLVKGFYPSDIAVEWESNGQPENNYKTTPPVLDSDGSFFLYSKLTVDKSRWQQGNVFSCSVMHEALHNHYTQKSLSLSPGK
VL: ELVLTQSPSSLSASIGDRVTITCRASQHISSWLAWYQQKPGKAPKPLIYAASSLKSGVPSRFSGSGSGTDFTLTISGLQPEDFATYYCQQYENSPVTFGGGTKVEIKRTVAAPSVFIFPPSDEQLKSGTASVVCLLNNFYPREAKVQWKVDNALQSGNSQESVTEQDSKDNTYSLSSTLTLSKADYEKHKVYACEVTHQGLSSPVTKSFN
B2: humanized MAb A3 (antibody)
VH: EVQLLESGAEVKKPGSSVRISCKVSGTPYSSYVMNWVRQAPGQGLEWMGVFVPSLDRALYAQNFQGRLSITADTTTTYMELTSLKFEDTAVYYCATDFSVGWLRPLDRWGQGTLVTVSSASTKGPSVFPLAPSSKSTSGGTAALGCLVKDYFPEPVTVSWNSGALTSGVHTFPAVLQSSGLYSLSSVVTVPSSSLGTQTYICNVDHKPSNTKVDKKVEPKSCDKTHTCPPCPAPPVEGGPSVFLFPPKPKDTLMISRTPEVTCVVVDVSHEDPEVKFNWYVDGVEVHNAKTKPREEQYNSTYRVVSVLTVLHQDWLNGKEYKCKVSNKALPAPIEKTISKAKGQPREPQVYTLPPSRDELTKNQVSLTCLVKGFYPSDIAVEWESNGQPENNYKTTPPVLDSDGSFFLYSKLTVDKSRWQQGNVFSCSVMHEALHNHYTQKSLSLSPGK
VL: not shown

Biological target: JEV strain SA14-14-2 envelope (E) protein on virions (Japanese encephalitis virus strain SA14-14-2), P0DOH7
Assay: ELISA on JEV virions captured with HMAF, half-maximal binding, MAb
Conditions: remark: other sources report otherwise

| Binder | Kd [nM] |
| --- | --- |
| B1 | 0.08 |
| B2 | 0.15 |
